Paper PMC13618070 (RNA (New York, N.Y.), 2025)
Positions count from the first letter of the chain named. Names may count otherwise.

B1: RDE-4 truncation R3 (dsRBM3 only, begins with M244) (domain or fragment, C. elegans, UniProt G5EBF5 244-385, looked up)
chain: MVDVIENLEEAEHLLEIQDQASKIKDKHSALIDILSDKKRFSDYSMDFNVLSVSTMGIHQVLLEISFRRLVSPDPDDLEMGAEHTQTEEIMKATAEKEKLRKKNMPDSGPLVFAGHGSSAEEAKQCACKSAIIHFNTYDFTD
B2: RDE-4 dsRBM1 and dsRBM2 point mutant R1^AAR2^AAR3 (K89A/K90A/K217A/K218A) (natural protein, C. elegans, UniProt G5EBF5 1-385, looked up)
chain: MDLTKLTFESVFGGSDVPMKPSRSEDNKTPRNRTDLEMFLKKTPLMVLEEAAKAVYQKTPTWGTVELPEGFEMTLILNEITVKGQATSAAAARQKAAVEYLRKVVEKGKHEIFFIPGTTKEEALSNIDQISDKAEELKRSTSDAVQDNDNDDSIPTSAEFPPGISPTENWVGKLQEKSQKSKLQAPIYEDSKNERTERFLVICTMCNQKTRGIRSKAADAKNLAAWLMWKALEDGIESLESYDMVDVIENLEEAEHLLEIQDQASKIKDKHSALIDILSDKKRFSDYSMDFNVLSVSTMGIHQVLLEISFRRLVSPDPDDLEMGAEHTQTEEIMKATAEKEKLRKKNMPDSGPLVFAGHGSSAEEAKQCACKSAIIHFNTYDFTD
B3: RDE-4 dsRBM1 point mutant R1^AAR2R3 (K89A/K90A) (natural protein, C. elegans, UniProt G5EBF5 1-385, looked up)
chain: B2 chain with A217K, A218K
B4: RDE-4 dsRBM2 point mutant R1R2^AAR3 (K217A/K218A) (natural protein, C. elegans, UniProt G5EBF5 1-385, looked up)
chain: B2 chain with A89K, A90K

These binders were tested against DCR-1•DRH-1 complex (DCR-1•(OSF)DRH-1) (C. elegans, UniProt P34529 1-1910; G5EDI8 1-1037) (assay: pull-down).

Row | Binder | percent recovery normalized to WT RDE-4
1 | B1 | ~72%
2 | B2 | > 100%
3 | B3 | > 100%
4 | B4 | > 100%
